In publication PMC6020293, “In Vitro Reconstitution of Functional Type III Protein Export and Insights into Flagellar Assembly” (mBio, 2018):

Target: the molecule itself
Assay: co-sedimentation; purified FlgE (4 µM) transported into inverted membrane vesicles with FlgD (0.6 or 4 µM), FliH2/FliI complex, FliJ and 5 mM ATP; after proteinase K and Triton X-100 centrifuged at 150,000 x g for 30 min; supernatant and precipitate immunoblotted; hook forms on the basal body inside the vesicle

B1: FlgE (natural protein)
chain: MSFSQAVSGLNAAATNLDVIGNNIANSATYGFKSGTASFADMFAGSKVGLGVKVAGITQDFTDGTTTNTGRGLDVAISQNGFFRLVDSNGSVFYSRNGQFKLDENRNLVNMQGMQLTGYPATGTPPTIQQGANPAPITIPNTLMAAKSTTTASMQINLNSTDPVPSKTPFSVSDADSYNKKGTVTVYDSQGNAHDMNVYFVKTKDNEWAVYTHDSSDPAATAPTTASTTLKFNENGILESGGTVNITTGTINGATAATFSLSFLNSMQQNTGANNIVATNQNGYKPGDLVSYQINNDGTVVGNYSNEQEQVLGQIVLANFANNEGLASQGDNVWAATQASGVALLGTAGSGNFGKLTNGALEASNVDLSKELVNMIVAQRNYQSNAQTIKTQDQILNTLVNLR
notes: FlgE, flagellar hook protein, Salmonella; also called hook protein FlgE
  binding result: binds
